According to US8859492:
Where no end group is shown, it is not given here. [ ]: non-standard residue; d: D form. Cha = N[C@@H](CC1CCCCC1)C(=O)O

Columns and labels:
[1] = molecular target: Recombinant human somatic ACE (sACE-1: Leu30-Leu1261, with C-terminal His tag) (human) (UniProt P12821); test: cell-based or functional assay
[2] = molecular target: Recombinant human somatic ACE (sACE-1: Leu30-Leu1261, with C-terminal His tag) (human) (UniProt P12821); test: affinity based on the IC50 of sACE-1 inhibition (fluorogenic substrate cleavage)
[3] = molecular target: HCV protease (hepatitis C virus); test: affinity of metallopeptide for HCV protease; method not described

Chain of Recombinant human somatic ACE (sACE-1: Leu30-Leu1261, with C-terminal His tag) (human) (P12821 30-1261 limits assumed): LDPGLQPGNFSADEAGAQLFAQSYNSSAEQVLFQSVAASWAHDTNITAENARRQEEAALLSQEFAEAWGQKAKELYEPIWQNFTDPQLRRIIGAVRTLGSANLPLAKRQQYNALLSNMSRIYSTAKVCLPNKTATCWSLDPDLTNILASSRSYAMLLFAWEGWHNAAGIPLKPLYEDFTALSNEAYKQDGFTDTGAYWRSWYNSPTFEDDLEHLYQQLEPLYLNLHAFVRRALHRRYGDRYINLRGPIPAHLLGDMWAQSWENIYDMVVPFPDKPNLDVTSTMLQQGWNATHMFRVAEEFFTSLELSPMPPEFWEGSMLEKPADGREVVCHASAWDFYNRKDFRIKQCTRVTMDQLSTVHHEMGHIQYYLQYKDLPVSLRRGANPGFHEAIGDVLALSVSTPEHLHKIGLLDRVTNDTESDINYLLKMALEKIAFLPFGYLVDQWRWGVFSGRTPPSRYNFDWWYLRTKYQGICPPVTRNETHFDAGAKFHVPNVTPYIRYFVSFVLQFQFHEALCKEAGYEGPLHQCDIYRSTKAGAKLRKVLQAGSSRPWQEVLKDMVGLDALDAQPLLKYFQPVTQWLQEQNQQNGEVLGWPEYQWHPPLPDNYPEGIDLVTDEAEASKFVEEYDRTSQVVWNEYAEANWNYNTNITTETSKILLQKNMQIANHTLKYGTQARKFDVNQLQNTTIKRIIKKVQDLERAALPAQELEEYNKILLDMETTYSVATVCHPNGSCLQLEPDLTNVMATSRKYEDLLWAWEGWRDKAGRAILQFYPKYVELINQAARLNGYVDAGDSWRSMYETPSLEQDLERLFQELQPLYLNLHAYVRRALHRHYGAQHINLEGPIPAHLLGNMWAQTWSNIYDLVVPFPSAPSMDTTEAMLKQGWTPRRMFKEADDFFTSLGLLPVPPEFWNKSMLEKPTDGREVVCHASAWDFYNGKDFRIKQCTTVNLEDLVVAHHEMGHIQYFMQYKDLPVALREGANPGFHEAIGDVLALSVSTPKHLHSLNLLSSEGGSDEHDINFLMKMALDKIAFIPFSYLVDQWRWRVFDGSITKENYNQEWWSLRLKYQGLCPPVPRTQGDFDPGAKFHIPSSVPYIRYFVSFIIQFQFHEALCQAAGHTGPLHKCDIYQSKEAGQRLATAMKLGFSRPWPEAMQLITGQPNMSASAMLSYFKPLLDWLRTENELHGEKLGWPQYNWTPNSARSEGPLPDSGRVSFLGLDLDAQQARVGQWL

Substance | second order rate constant for inactivation of sACE-1, ascorbate + H2O2 [1] [M⁻¹ s⁻¹] | Ka [2] [M⁻¹] | IC50 of sACE-1 inhibition (cleavage of fluorogenic substrate) [1] [µM] | second order rate constant for inactivation of sACE-1, H2O2 [1] [M⁻¹ s⁻¹] | second order rate constant for inactivation of sACE-1, ascorbate [1] [M⁻¹ s⁻¹] | affinity [3] [µM]
Co-GGH (M-chelate without lisinopril) (peptide) | < 333 |  |  |  |  | 
GGHDEMEEC (SEQ ID NO: 71) |  |  |  |  |  | 48
GGHD[dE]LI[Cha]CP[Cha]DL |  |  |  |  |  | 0.01
Ni-GGH (M-chelate without lisinopril) (peptide) |  |  |  |  | < 83.3 | 

Further lines, with some results ahead:

second order rate constant for inactivation of sACE-1, ascorbate + H2O2 [1] [M⁻¹ s⁻¹] | Ka [2] [M⁻¹] | IC50 of sACE-1 inhibition (cleavage of fluorogenic substrate) [1] [µM] | second order rate constant for inactivation of sACE-1, H2O2 [1] [M⁻¹ s⁻¹] | second order rate constant for inactivation of sACE-1, ascorbate [1] [M⁻¹ s⁻¹] | Substance | affinity [3] [µM]
1170 | 1.11e+07 | 0.09 |  |  | Co-GGH-lisinopril (peptide) | 
2530 | 680000 | 1.47 | 467 | 1700 | Cu-GGH-lisinopril (peptide) | 
 | 6.67e+06 | 0.15 |  | 500 | Ni-GGH-lisinopril (peptide) | 
167 |  | 17 | < 33.3 | < 16.7 | [Cu-GGH]^1- (peptide) | 
